Assay: yeast display, Sf9 membrane polyspecificity reagent, FACS + sequencing; frameworks hold sequencing errors
In short: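 In a synthetic yeast display library (Saccharomyces cerevisiae BJ5465), nanobody expression was induced with galactose for 36–48 hours. FACS gates were set low and high (top ~1%) using anti-HA fluorescence for expression and streptavidin fluorescence for binding of the Sf9 membrane reagent. Each polyreactivity label is drawn from the gate of origin.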

Sequence: QVQLVESGGGLVQAGGSLRLSCAASGNTFYKYAMRWYRQAPGKERELVADISWSGGSTYYADSVKGRFTISRDNAKNTVYLQMNSLKPEDTAVYYCNADTPVWDGHAYPVDYWGQGTQVTVSS
- polyreactivity (PSR sort gate): low polyreactivity

Sequence: QVQLVESGGGLVQAGGSLRLSCAASGRIFRKYVMGWYRQAPGKERELVASITTSGDSTYYADSVKGRFTISRDNAKNTVYLQMNSLKPEDTAVYYCAARSYRGRRYDYWGQGTQVTVSS
- polyreactivity (PSR sort gate): high polyreactivity

Sequence: QVQLVESGGRLVQAGGSLRLSCAASGRIFTYNAMGWYTQAPGKERELVAGITRRGGSTYYADSVKGRFTISRDNAKNTVYLQMNSLKPEDTAVYYCAATYPNARRYEYWGQGTQVTVSS
- polyreactivity (PSR sort gate): high polyreactivity

Sequence: QVQLVESGGGLVQAGGSLRLSCAASGRTFYRYAMGWYRQAPGKERELVAAISTRGGTTYYADSVKGRFTISRDNAKNTVYLQMNSLKPEDTAVYYCAADSVYAEDDSWGQGTQVTVSS
- polyreactivity (PSR sort gate): low polyreactivity

Sequence: QFQLVESGGGLVQAGGSLRLSCAASGGTFPYNAMGWYRQAPGKERELVAAISSSGTSTYYADSVKGRFTISRDNAKNTVYLQMNSLKPEDTAVYYCNDYFKRYDYWGQGTQVTVSS
- polyreactivity (PSR sort gate): high polyreactivity

Sequence: QVQLVESGGGLVQAGGSLRLSCAASGIIFDYNAMGWYRQAPGKERELVASIDSGGSTNYADSVKGRFTISRDNAKNTVYLQMNSLKPEDTAVYYSNADDTTVSPWYYYYQSYYWGQGTQVTVSS
- polyreactivity (PSR sort gate): low polyreactivity

Sequence: QVQLVESGGGLVQAGGSLRLSCAASGSIFYKYMGWYRQAPGKERELVAAISWSGGRTYYADSVKGRFTISRDNAKNTVYLQMNSLKPEDTAVYYCNRVVLWRIGDKAFEYWGQGTQVTVSS
- polyreactivity (PSR sort gate): high polyreactivity

Sequence: QVQLVESGGGLVQAGGSLRLSCAASGSTFYFYTMGWYRQAPGKERELVAAISQDGGSTYYADSVKGRFTISRDNAKNTVYLQMNSLKPEDTAVYYCAADKRGTVYLSSFWMDYWGQGTQVTVSS
- polyreactivity (PSR sort gate): low polyreactivity

Sequence: QVQLVESGGGLVQARGSLRLSCAASGSTFRYYAMGLYRQAPGKERELVAAITSSGTSTYYADSVKGRFTISRDNAKNTVYLQMISLKPEDTAVYYCAAPPVYKWVSSRYDYWGQVTQVTVSS
- polyreactivity (PSR sort gate): low polyreactivity

Sequence: QVQLVESGGGLVQAGGSLRLSCAASGFTFRRYDMGWYRQAPGKERELVATINRGGSTDYADSVKGRFTISRDNAKNTVYLQMNSLKPEDTAVYYCATRYYSSRTWSEYYYWGQGTQVTVSS
- polyreactivity (PSR sort gate): high polyreactivity

Sequence: QVQLVESGGGLVQAGGRLRLSCAASGSISVTKAMGWYRQAPGTERELVAAISGSGGSTYADSVKGRFTISRDNAKNTVYLQMNSLKPVDTAVYYCDRDRYYTREWYWYRHDHWGQGTQVTVSS
- polyreactivity (PSR sort gate): low polyreactivity

Sequence: QVQLVESGGGLVQAGGSLRLSCAASGFTFVYSVMGWYRQAPGKERELVAAINAGGGSTYYADSVKGRFTISRDNAKNTVYLQMNSLKPEDTAVYYCNARVRVRLGRNWSSYYYWGQGTQVTVSS
- polyreactivity (PSR sort gate): high polyreactivity

Sequence: QVQLVESGGGLVQAGGSLRLSCAASGITFYYYAMGWYRQAPGKERELVARISYGGGRTYYADSVKGRFTISRDNAKNTVYLQMNSLKPEDTAVYYCAARQGYRSYRRYDYWGQGTQVTVSS
- polyreactivity (PSR sort gate): high polyreactivity

Sequence: QVQLEESGGGLVQAGGSLRLSCAASGITFLNYAMGWYRQATGKERELVAAISWSGGRTYYADSVKGRFTISRDNAKNTVYLQMNSLKPEDTAVYYCAVRGSWYSEHNYWGQGTQVTVSS
- polyreactivity (PSR sort gate): high polyreactivity

Sequence: QVQLVESGGGLVQAGGSLRLSCAASGCIFFQYAMGWYIQAPGKERELVAAISGSGVTTYYADSVKGRFTISRDNAKNTVYLQMNSLKPEDTAVYYCNAALRWKYDWGQGTQVTVSS
- polyreactivity (PSR sort gate): low polyreactivity

Sequence: QVQLVDSGGGLVQAGGSLRLSCAASGSIIFYNAMGWYRQAPGKERELVAAISRGGNTNYADSVKGRFTISRDNAKNNFYLQMNSLKSEDTAVYYCNADLVQYWGRRRWYDYWGQGTQVTVSS
- polyreactivity (PSR sort gate): low polyreactivity

Sequence: QVQLVESGGGLVQAGGSLRLSCAASGSTFIGYAMGWYRQAPGKERELVASISWGGGSTYYADSVKGRFTISRDNAKNTVYLQQNSLIPEDTAVYYCNTYYWFSGCPYDYWGQGTQVTVSS
- polyreactivity (PSR sort gate): low polyreactivity

Sequence: QVQLVESGGGLVQAGGSLRLSCAASGRTFERYAMGWYRQAPGKERELVADISSSGSTNYADSVKGRFTISRDNAKNTVYLQMNRLNPEDTAVYYCAADYWRHWYWDVVEFDYWGQGTQVTVSS
- polyreactivity (PSR sort gate): high polyreactivity

Sequence: QVQLVESGGVLVQAGGSLRLSCAASGFTFSLYGMGWYRQAPGKEREFVAAIRSGGSTNYADSVKGRFTISRDNAKNTVYLQMNRLKPEDTAVYYCATDIHSVHNNRDKHDYDYWGQGTQVTVSS
- polyreactivity (PSR sort gate): low polyreactivity

Sequence: QVQLVESGGGLVKAGGSLRLSCAASGINFYRYAMGWYRQAPGKERELVAAITWSGVSTSYADSVKGRFTISRDNAKKTVYLQMNSLKPEDTAVYYCNTDPGTLYGDMDSWGQGTQVTVSS
- polyreactivity (PSR sort gate): low polyreactivity

Sequence: QVQLVVSGGGLVQAGGSLRLSCAASGSIFTRYAMGWYRQAPGKERELVAAISSGGSTYYADSVKGRFTISRDNAKNTVYLQMNSLKPEDTAVYYCAKDSGSYRVGIYEPFPYGYWGQGTQVTVSS
- polyreactivity (PSR sort gate): low polyreactivity

Sequence: QVQHVESGGGLVQAGGSLRLSCAASGFTLFWNDMGWYRQAPGKERELVAAITSGDDTYADSVKGRFTISRDNAKNTVYLQMNSLKPEDTAVYYCNKDDPLRNVAQVILYEFYYWGQGTQVTVSS
- polyreactivity (PSR sort gate): low polyreactivity

Sequence: HVQHVDSGAGLVQAGGSLRLSCAASGRTFVGYAMGWYRQAPGKEREFVADITYDSGSTYYADSVKGRFTISRDNAKNTVYLQMNSLKPEDTAVYYCNAKYYYWWYDVDYWGQGTQVTVSS
- polyreactivity (PSR sort gate): high polyreactivity

Sequence: QVQLVDSGGGLVQAGGILRLSCAASGSIFSSYAMGWYRQAPGKERELVAAITSGGSTYYADSVKGRFTISRDNAKITVYLQMNSLKREDTAVYYCAAYLSYFGYDYWGQGTQVTVSS
- polyreactivity (PSR sort gate): low polyreactivity

Sequence: QVQLVESGGGLVQAGGSLRLSCDASGRIFRGYAMGWYRKAPGKERELVAAISGRGGRTNYADSVKGRFTISRDNAKNTVYLQMNSLKTEDTAVYYCAVKRLSYPYVGHYYFWGQGTQVTVSS
- polyreactivity (PSR sort gate): high polyreactivity

Sequence: QVQLVESGGGLDQAGGSLRLSCAASGSIFYPYAMRWYRQAPGKERELVAAISSGGGTNYADSVKGRFTISRDNAKNTVYLQMNSLKPEDTEVYYCNARTGTTWQGYEYDYWGQGTQVTVSS
- polyreactivity (PSR sort gate): low polyreactivity

Sequence: QVQLVESGGGLVQAGGSLRLSCAASGFTFAYNAMGWYRQAPGKERELDAAINSSGGTTYYADSVKGRFTISRDNAKNTVYLQMNSLKPEDTAVYYCAAVYSTSYSGSFPGYDYWGQGTQVTVSS
- polyreactivity (PSR sort gate): low polyreactivity

Sequence: QVQLVESGGGLVQAGGSLRLSCAASGSIFVNYAMGWYRQAPGKERELVAAITLRGGSTFYADSVKGRFTISRDNAKNTVYLQMNSLKPEDTAVYYCAASSLRYRAYKSLFDYWGQGTQVTVSS
- polyreactivity (PSR sort gate): low polyreactivity

Sequence: QVQLVESGGGLVQAGGSLRLSCAASGRTFYWNAMGWYRQAPGKERELVAAITRNGGSTYYADSVKGRFTISRDNAKNTVYLQMNSLKPEDTAVYYCAARKRYGAGYDYWGQGTQVTVSS
- polyreactivity (PSR sort gate): high polyreactivity

Sequence: HVQLVDSGGGLVQAGGSLRLSCAASGFIFRRYAMGWYRQAPGKERELVAAIRSDGSTNYADSVKGRFTISRDNAKNTVYLQLNSLKPEDTAVYYCAATYYSYTWFSQYYYWGQGTQVTVSS
- polyreactivity (PSR sort gate): high polyreactivity

Sequence: QVQLVESGGGLVQAGGSLRLSCAASGLIFSYNAMGWYRQAPGKERELVAAISYSGGSTYYADSVKGRFTISRDNAKNTVYLQMNSLKPEDTAVYYCAAVLSPDFYYWGQGTQVTVSS
- polyreactivity (PSR sort gate): high polyreactivity

Sequence: QVQLVESGGGLVQAGGSLRLSCAASGFTYGRYAMGWYRQAPRKERELVAAISFSGGRTYYADSVKGRFTISRDNAKNTVYLQMKSLKPEDTAVYYCAARRRQEHVGRSSYARYDYWGQGTQVTVSA
- polyreactivity (PSR sort gate): high polyreactivity

Sequence: QFQLVESGGGLVQAGGSLRLSCAASGGIFDTNAMGWYRQATGKDRELVAAITVRGGSTYYADSVKGRFTISRDNAKNTVYLQMNSLKPEDTAVYYCATRSPKRAAVRYNYWGQGTQVTVSS
- polyreactivity (PSR sort gate): high polyreactivity

Sequence: QVQLVESGGGLVQAGGSLRLSCDASGFIFKGNAMGWYRHAPRKERELVAAITNRGGGTYYADSVKGRFTISRDNAKNTVYLQMNSLKPEDTAVYYCAKAYTRPFHPYDYWGQGTQVTVSS
- polyreactivity (PSR sort gate): high polyreactivity

Sequence: QVQLVESGGGLVQAGGSLRLSCAASGSIFGGYAMGWYRPAPGKERELVASITKSGDSTYADSVKGRFTISRDNAKNTVYLQMNSLKPEDTAVYDCAADSTFGKFEYWGQGTQVTVSS
- polyreactivity (PSR sort gate): low polyreactivity

Sequence: QVQLVESGGGLVQAGGSLRLSCAASGFIFQYYAMGWYRQAPGKERELVAAITPSGTSTYYADSVKGRFTISRDNAKNTVYLQMNSLKPEDTAVYYCAVRYYFVDFHSTTGYPYSYDYWGQGTQVTVSS
- polyreactivity (PSR sort gate): low polyreactivity

Sequence: QVQLVESGGGLVQAGGSLRLSCAASGSTFYYYAMGWYRQAPGKERELVASITTGGGSTYYADSVKGRFTISRDNAKNTVYLQMNSLKPEDTAVYYCAAALAYYYWWYDYWGQGTQVTVSS
- polyreactivity (PSR sort gate): low polyreactivity

Sequence: QVQLVESGGGLVQAGGSLRLSCAASGITFVLYAMGWYRQAPGKERELVAANSSSGGRTYYADSVKGRFTISRDYAKNTVYLQMNSLKPEDTAVYYCAKDTYGFAANRPAGDGYWGQGTQVTVSS
- polyreactivity (PSR sort gate): high polyreactivity

Sequence: QVQLVESGGGLVQAGGILRLSCGASGIIFDGYAMGWSRQAPGKERELVAAIDGTGDSTYYADSVKGRFTISRDNAKNTVYLQMNSLKPEDTAVYYCGAEYDYRWWYGYDYWGQGTQVTVSW
- polyreactivity (PSR sort gate): high polyreactivity

Sequence: QVQLVESGGGLVQAGGSLRLSCAASGRTFRSNTMGWYRQAPGKEREFVAVITYSAGSTYYADSVKGRFTISRDNAKNTVYLQMNSLKPEDTAVYYCAATSKYRGDYWGQGTQVTVSS
- polyreactivity (PSR sort gate): high polyreactivity

Sequence: QVQLVESGGGLVQAGGSLRLSCAASGSTFVGYVMGWSRQAPGKERELVAAITRSGTSTYYADSVKGRFTISRDNAKNTVYLQMNSLKPEDTAVYYCARRYVSSDYYYWGQGTQVTVSS
- polyreactivity (PSR sort gate): low polyreactivity

Sequence: QVQLVESGGGLVQSGGSLRLSCAASGSTFGFYAMGGYRQAPGKERELVAAISRGGSTNYADSVKGRFTISRDNAKNTVSCQMNSLKPEDTAVYYCAKAYHATSYYWGQGTQVTVSS
- polyreactivity (PSR sort gate): low polyreactivity

Sequence: QVQLVESGGGLVQAGGRHRLICAATGITYKSNPMGWYIQAPGTETELVAAIARRASSTYYADSVKGRFTISRDNAKNTVYLHMNSLNPEDTAVYYCNAVLPVYRTNLDYWGQGTQVTVSS
- polyreactivity (PSR sort gate): high polyreactivity

Source: the nanobody polyreactivity screen of Harvey et al. (2022)
